Patent US8822645B2, “Prostaglandin E2 dual variable domain immunoglobulins and uses thereof” (AbbVie Inc., priority 2008, dated 2014)

Key:
[1] = Size exclusion chromatography, percent monomer of parent antibodies and DVD-Ig constructs; assay type: physicochemical
Experimental: Antibodies were diluted to 2.5 mg/mL with water and […] is analyzed on a Shimadzu HPLC system using a TSK gel G3000 SWXL column (Tosoh Bioscience, cat#k5539-05k). […] The HPLC system operating conditions are the following: […]

[2] = PGE2-biotinamide ELISA (PGE2 binding); settings: PGE2 VD in C-terminal position, read-out: Direct Bind ELISA C-terminal VD EC50
Method in brief: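 Antibody or DVD-Ig (1 µg/ml) captured on anti-host Fc IgG-coated plates for 1 h at room temperature, then titrated with PGE2-biotinamide serially diluted from 30 nM for 1 h. Binding detected with streptavidin-polyHRP and TMB, absorbance read at 450 nm; EC50 from the titration curve.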

[3] = system: stable cell lines overexpressing a cell-surface antigen of interest or human tumor cell lines; assay: Flow cytometry (FACS) binding to cell surface antigen; assay type: cell-based; settings: IL-6R VD in N-terminal position; 2 μg/mL
Experimental: Stable cell lines overexpressing cell-surface antigen of interest or human tumor cell lines were harvested from tissue culture flasks and resuspended in phosphate buffered saline (PBS) containing 5% fetal calf serum (PBS/FCS). Prior to staining, human tumor cells were incubated on ice with human IgG at 200 μg/ml in PBS/FCS. 1-5×10^5 cells were incubated with antibody or DVD-Ig (1-2 μg/mL) in PBS/FCS for 30-60 minutes on ice. […] After 30 minutes incubation on ice, cells were washed twice and resuspended in PBS/FCS. Fluorescence was measured using a Becton Dickinson FACSCalibur (Becton Dickinson, San Jose, Calif.).
Stable cell lines overexpressing a cell-surface antigen of interest or human tumor cell lines were harvested from tissue culture flasks and resuspended in phosphate buffered saline (PBS) containing 5% fetal bovine serum (PBS/FBS). Prior to staining, human tumor cells were incubated on ice with (100 μl) human IgG at 5 μg/ml in PBS/FCS. 1-5×10^5 cells were incubated with antibody or DVD-Ig (2 μg/mL) in PBS/FBS for 30-60 minutes on ice. […] After 30 minutes incubation on ice, cells were washed twice and resuspended in PBS/FBS. Fluorescence was measured using a Becton Dickinson FACSCalibur (Becton Dickinson, San Jose, Calif.).
The geometric mean is the n root of the multiplication product of n fluorescent signals (a1×a2×a3 . . . an). […]

EC50 [2]: 1.65 nM
B1: DVD152: DVD-Ig construct listed in Table 4 (antibody)
VH: EVQLQESGPGLVRPSQTLSLTCTVSGYSITSDHAWSWVRQPPGRGLEWIGYISYSGITTYNPSLKSRVTMLRDTSKNQFSLRLSSVTAADTAVYYCARSLARTTAMDYWGQGSLVTVSSASTKGPEVQLVQSGAEVKKPGASVKVSCKASGYTFTKYWLGWVRQAPGQGLEWMGDIYPGYDYTHYNEKFKDRVTLTTDTSTSTAYMELRSLRSDDTAVYYCARSDGSSTYWGQGTLVTVSS
VL: DIQMTQSPSSLSASVGDRVTITCRASQDISSYLNWYQQKPGKAPKLLIYYTSRLHSGVPSRFSGSGSGTDFTFTISSLQPEDIATYYCQQGNTLPYTFGQGTKVEIKRTVAAPDVLMTQTPLSLPVTPGEPASISCTSSQNIVHSNGNTYLEWYLQKPGQSPQLLIYKVSNRFSGVPDRFSGSGSGTDFTLKISRVEAEDVGVYYCFQVSHVPYTFGGGTKVEIKR
% Monomer (purity) [1]: 87.6%
FACS Geometric Mean N-terminal [3]: 9.13
